Measurements reported in US20220332804A1 (CSL INNOVATION, published 2022).
Changes are numbered by the printed parent chain.

Tests used:
Experiment in all cases: SPR, antibody captured, C2 as analyte;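 further: biacore SPR at 37 °C, anti-C2 mAbs captured via goat anti-human IgG on CM5 chips, double-referenced sensorgrams fit to a 1:1 kinetic or steady-state model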
human C2 F689A = target: T1, human C2 F689A (human, UniProt P06681 21-752)
T1 sequence: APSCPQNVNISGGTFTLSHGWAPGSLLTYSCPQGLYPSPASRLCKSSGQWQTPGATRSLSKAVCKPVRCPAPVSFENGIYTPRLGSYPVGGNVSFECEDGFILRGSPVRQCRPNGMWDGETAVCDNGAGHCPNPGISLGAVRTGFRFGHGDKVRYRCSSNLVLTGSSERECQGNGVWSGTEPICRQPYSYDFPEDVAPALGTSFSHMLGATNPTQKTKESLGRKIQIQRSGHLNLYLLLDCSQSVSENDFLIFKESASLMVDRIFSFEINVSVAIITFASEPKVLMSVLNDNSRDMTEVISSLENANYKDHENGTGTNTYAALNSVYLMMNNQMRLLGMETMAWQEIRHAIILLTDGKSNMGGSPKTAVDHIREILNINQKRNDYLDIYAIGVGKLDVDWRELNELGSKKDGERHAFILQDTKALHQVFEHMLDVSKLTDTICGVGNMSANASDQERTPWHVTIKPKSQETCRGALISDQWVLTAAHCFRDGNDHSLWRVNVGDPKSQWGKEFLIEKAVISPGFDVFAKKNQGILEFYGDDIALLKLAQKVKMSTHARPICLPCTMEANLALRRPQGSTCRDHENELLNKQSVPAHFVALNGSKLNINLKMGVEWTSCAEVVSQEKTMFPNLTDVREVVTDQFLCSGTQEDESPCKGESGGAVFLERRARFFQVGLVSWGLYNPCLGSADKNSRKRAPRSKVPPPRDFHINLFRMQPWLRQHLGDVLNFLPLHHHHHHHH

human C2 K329A = target: T2, human C2 K329A (human, UniProt P06681 21-752)
T2 sequence: T1 sequence with K309A, A669F

human C2 I438A = target: T3, human C2 I438A (human, UniProt P06681 21-752)
T3 sequence: T1 sequence with I418A, A669F

human C2 E267A = target: T4, human C2 E267A (human, UniProt P06681 21-752)
T4 sequence: T1 sequence with E247A, A669F

B1: RF16-226 (antibody, human IgG4 S228P, lambda)
heavy: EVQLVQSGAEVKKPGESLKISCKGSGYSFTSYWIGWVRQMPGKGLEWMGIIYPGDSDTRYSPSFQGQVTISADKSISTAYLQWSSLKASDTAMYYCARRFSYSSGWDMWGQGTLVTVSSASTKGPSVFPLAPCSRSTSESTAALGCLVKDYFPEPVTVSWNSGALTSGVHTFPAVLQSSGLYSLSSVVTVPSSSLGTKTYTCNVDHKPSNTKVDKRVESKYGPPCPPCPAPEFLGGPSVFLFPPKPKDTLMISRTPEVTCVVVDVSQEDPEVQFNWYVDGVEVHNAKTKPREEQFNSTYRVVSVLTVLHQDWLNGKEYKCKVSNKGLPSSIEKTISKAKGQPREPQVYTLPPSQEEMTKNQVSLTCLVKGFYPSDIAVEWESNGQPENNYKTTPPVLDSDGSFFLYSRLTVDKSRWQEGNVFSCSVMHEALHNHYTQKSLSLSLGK
light: SYELTQPPSVSVSPGQTARITCSGDALTSKYVAWYQQKSGLAPLLVIYEDTRRPSGIPAKFSGSSSGSVATLTISGAHGDDEADYYCYSTDASGHQRVFGGGTKLTVLSQPKAAPSVTLFPPSSEELQANKATLVCLISDFYPGAVTVAWKADGSPVKAGVETTKPSKQSNNKYAASSYLSLTPEQWKSHRSYSCQVTHEGSTVEKTVAPTECS
notes: pH-dependent anti-C2 antibody from a phage display library; also called WT
Human C2 F689A
  Kd: 9.3 nM
Human C2 K329A
  Kd: 25.6 nM
Human C2 I438A
  Kd: 8.7 nM
Human C2 E267A
  Kd: 11.2 nM
